# Experimental data: the RNAGym collection of RNA variant scans (doi:10.7554/elife.80360)
# B1: CPEB3 Ribozyme (parent)
# chain: GGGGGCCACAGCAGAAGCGUUCACGUCGCGGCCCCUGUCAGAUUCUGGUGAAUCUGCGAAUUCUGCUGU
# Variants of: B1
# Test: self-cleavage, relative activity (ratio to wild type); higher = more cleavage; co-transcriptional
row,Variant,self-cleavage
1,GGGGGCCACAGCAGAAGUGUUCACGUCGCGGCCCCUGUCAGUUUCUGGUGAAUCUGCGAAUUCUGCUGU [C18U A42U],0.687
2,GGGGGCCACAGCAGAAGGGUUCACGUCGCGGCCCCUGUCAGAUUCUGGUGAAUCUGCGAAUGCUGCUGU [C18G U62G],0.173
3,GGGGGCCACAGCAGAAGGGUUCACGUCGCGGCCCCUGUCAGAUUCUGGUGAGUCUGCGAAUUCUGCUGU [C18G A52G],0.244
4,GGGGGCCACAGCAGAAGGGUUCACGUCGCGGCCCCUGUCAGAUUCUGGUGACUCUGCGAAUUCUGCUGU [C18G A52C],0.181
5,GGGGGCCACAGCAGAAGUGUUCACGUCGCGGCCCCUGUCUGAUUCUGGUGAAUCUGCGAAUUCUGCUGU [C18U A40U],0.378
6,GGGGGCCACAGCAGAAGUGUUCACGUCGCGGCCCCUGUCGGAUUCUGGUGAAUCUGCGAAUUCUGCUGU [C18U A40G],0.742
7,GGGGGCCACAGCAGAAGAGUUCACGUCGCGGCCCCUGUCAGAUUCUGGUGAAUCUGCGAAUACUGCUGU [C18A U62A],0.133
8,GGGGGCCACAGCAGAAGAGUUCACGUCGCGGCCCCUGUCAGAUUCUGGUGAAUCUGCGAAUGCUGCUGU [C18A U62G],0.152
9,GGGGGCCACAGCAGAAGAGUUCACGUCGCGGCCCCUGUCAGAUUCUGGUGAAUCUGCGAAUCCUGCUGU [C18A U62C],0.141
10,GGGGGCCACAGCAGAAGGGUUCACGUCGCGGCCCCUGUCAGAUUCUGGUGAAUCGGCGAAUUCUGCUGU [C18G U55G],0.175
11,GGGGGCCACAGCAGAAGGGUUCACGUCGCGGCCCCUAUCAGAUUCUGGUGAAUCUGCGAAUUCUGCUGU [C18G G37A],0.119
12,GGGGGCCACAGCAGAAGGGAUCACGUCGCGGCCCCUGUCAGAUUCUGGUGAAUCUGCGAAUUCUGCUGU [C18G U20A],0.0787
13,GGGGGCCACAGCAGAAGGGUUCACGUCGCGGCCCCUGUCAGAUUCUGGUGAAUCUGCGAAUUCUGCGGU [C18G U67G],0.229
14,GGGGGCCACAGCAGAAGUGUUCACGUCGCGGCCUCUGUCAGAUUCUGGUGAAUCUGCGAAUUCUGCUGU [C18U C34U],0.919
15,GGGGGCCACAGCAGAAGUGUUCACGUCGCGGCCGCUGUCAGAUUCUGGUGAAUCUGCGAAUUCUGCUGU [C18U C34G],0.426
16,GGGGGCCACAGCAGAAGGGUUCACGUCGCGGCCCCUGUCAGAUUCUGGUGAAUCUGGGAAUUCUGCUGU [C18G C57G],0.17
17,GGGGGCCACAGCAGAAGUGUUCACGUCGCGGCCCCUGUCAGAUUCUGGUGCAUCUGCGAAUUCUGCUGU [C18U A51C],0.771
18,GGGGGCCACAGCAGAAGGGUUCACGUCGCGGCCCCUGUCAGAUCCUGGUGAAUCUGCGAAUUCUGCUGU [C18G U44C],0.125
19,GGGGGCCACAGCAGAAGGGUUCACGUCGCGGCCCCUGUCAGAUGCUGGUGAAUCUGCGAAUUCUGCUGU [C18G U44G],0.169
20,GGGGGCCACAGCAGAAGGGUUCACGUCGCGGCCCCUGUCAGAUUCUGGAGAAUCUGCGAAUUCUGCUGU [C18G U49A],0.259
21,GGGGGCCACAGCAGAAGAGUUCACGUCGCGGCCCCUGUCAGAUUCUGGUGAAUCCGCGAAUUCUGCUGU [C18A U55C],0.21
22,GGGGGCCACAGCAGAAGGGUUCAUGUCGCGGCCCCUGUCAGAUUCUGGUGAAUCUGCGAAUUCUGCUGU [C18G C24U],0.106
23,GGGGGCCACAGCAGAAGGGUUCAGGUCGCGGCCCCUGUCAGAUUCUGGUGAAUCUGCGAAUUCUGCUGU [C18G C24G],0.107
24,GGGGGCCACAGCAGAAGGGUUCACAUCGCGGCCCCUGUCAGAUUCUGGUGAAUCUGCGAAUUCUGCUGU [C18G G25A],0.174
25,GGGGGCCACAGCAGAAGUGUUCACGUCGCGGCCCCUGUCAGAUUCUGGUGAAUCUGCGUAUUCUGCUGU [C18U A59U],0.445
26,GGGGGCCACAGCAGAAGUGUUCACGUCGCGGCCCCUGUCAGAUUCUGGUGAAUCUGCGCAUUCUGCUGU [C18U A59C],0.32

row,Variant,self-cleavage
1,GGGGGCCACAGCAGAAGGGUUCACGUCGCGGCCCCUGUCAGAUUCUGGUGUAUCUGCGAAUUCUGCUGU [C18G A51U],0.207
2,GGGGGCCACAGCAGAAGGGUUCACGUCGCGGCCCCUGUCAGAUUCUGGUGGAUCUGCGAAUUCUGCUGU [C18G A51G],0.184
3,GGGGGCCACAGCAGAAGAGUUCACGUCGCGGCCCCUGUCAGAUUCUGGUGAAUCUGCGAAUUCCGCUGU [C18A U64C],0.14
4,GGGGGCCACAGCAGAAGAGUUCACGUCGCGGCCCCUGUCAGAUUCUGGUGAAUCUGCGAAUUCAGCUGU [C18A U64A],0.108
5,GGGGGCCACAGCAGAAGGGUUCACGUCGCGGCCCCUGUCAGAUUCUGGUGAAUCUGCGAAUUCUUCUGU [C18G G65U],0.161
6,GGGGGCCACAGCAGAAGUGUUCACGUCGCGGCCCUUGUCAGAUUCUGGUGAAUCUGCGAAUUCUGCUGU [C18U C35U],0.687
7,GGGGGCCACAGCAGAAGGGUUCACGUCGCGGCCCCUGUCAGAUUCUGGUGAAUCUGCGAAUUCUGCUUU [C18G G68U],0.311
8,GGGGGCCACAGCAGAAGUGUUCACGUCGCGGCGCCUGUCAGAUUCUGGUGAAUCUGCGAAUUCUGCUGU [C18U C33G],0.304
9,GGGGGCCACAGCAGAAGUGUUCACGUCGCGGCACCUGUCAGAUUCUGGUGAAUCUGCGAAUUCUGCUGU [C18U C33A],0.278
10,GGGGGCCACAGCAGAAGUGUUCACGUCGGGGCCCCUGUCAGAUUCUGGUGAAUCUGCGAAUUCUGCUGU [C18U C29G],0.132
11,GGGGGCCACAGCAGAAGGGUUCACGUUGCGGCCCCUGUCAGAUUCUGGUGAAUCUGCGAAUUCUGCUGU [C18G C27U],0.0906
12,GGGGGCCACAGCAGAAGGGUUCACGUCGCGGCCCCUGUCAGAUUCUGGUCAAUCUGCGAAUUCUGCUGU [C18G G50C],0.201
13,GGGGGCCACAGCAGAAGAGUUCACGUCGCGGCCCCUGUCAGAUUCUGGUGAAGCUGCGAAUUCUGCUGU [C18A U53G],0.17
14,GGGGGCCACAGCAGAAGAGUUCACGUCGCGGCCCCUGUCAGAUUCUGGUGAAACUGCGAAUUCUGCUGU [C18A U53A],0.188
15,GGGGGCCACAGCAGAAGAGUUCACGUCGCGGCCCCUGUCAGAUUCUGGUGAAUCUGCGAAUUCUGCUGC [C18A U69C],0.517
16,GGGGGCCACAGCAGAAGGGUUCACGUCGCGGCCCCUGUCAGAUUCUGGUGAAUCUGCGAAUUCUGUUGU [C18G C66U],0.215
17,GGGGGCCACAGCAGAAGGGUUCACGUCGCGGCCCCUGUCAGAUUCUGGUGAAUCUGCGAAUUCUGGUGU [C18G C66G],0.0954
18,GGGGGCCACAGCAGAAGGGUUCACGUCGCGGCCCCUGUCGGAUUCUGGUGAAUCUGCGAAUUCUGCUGU [C18G A40G],0.122
19,GGGGGCCACAGCAGAAGUGUUCACGUCGCGGCCCCUGUGAGAUUCUGGUGAAUCUGCGAAUUCUGCUGU [C18U C39G],0.491
20,GGGGGCCACAGCAGAAGGGUUCACGUCGCGGCCCCUGUCAGAUUCUUGUGAAUCUGCGAAUUCUGCUGU [C18G G47U],0.177
21,GGGGGCCACAGCAGAAGGGUUCACGUCGCGGCCCCUGUCAGAUUCUCGUGAAUCUGCGAAUUCUGCUGU [C18G G47C],0.0572
22,GGGGGCCACAGCAGAAGGGUUCACGUCGCGGCCCCUGUCAGAUUCUGGUGAAUCUGCAAAUUCUGCUGU [C18G G58A],0.104
23,GGGGGCCACAGCAGAAGUGUUCACGUCGCGGCCCCUGUCAGAUUCUGGUGAAUCUGCGACUUCUGCUGU [C18U A60C],0.288
24,GGGGGCCACAGCAGAAGUGUUCACGUCGCGGCCCCUGUCAGAUUCUGGUGAAUCUGCGAUUUCUGCUGU [C18U A60U],0.318
25,GGGGGCCACAGCAGAAGGGUUCACGUCGCGGCCCCUGUAAGAUUCUGGUGAAUCUGCGAAUUCUGCUGU [C18G C39A],0.184
26,GGGGGCCACAGCAGAAGGGUUCACGUCGCGGCCCCUGUUAGAUUCUGGUGAAUCUGCGAAUUCUGCUGU [C18G C39U],0.196

row,Variant,self-cleavage
1,GGGGGCCACAGCAGAAGGGUUCACGUCGCGGCCCCUGUGAGAUUCUGGUGAAUCUGCGAAUUCUGCUGU [C18G C39G],0.101
2,GGGGGCCACAGCAGAAGUGUUCAUGUCGCGGCCCCUGUCAGAUUCUGGUGAAUCUGCGAAUUCUGCUGU [C18U C24U],0.4
3,GGGGGCCACAGCAGAAGGGUUCACGUCGCGGCCCAUGUCAGAUUCUGGUGAAUCUGCGAAUUCUGCUGU [C18G C35A],0.0628
4,GGGGGCCACAGCAGAAGGGUUCACGUCGCGGCCCCUGUCAGAUUCUGGUGAAUCUGCGAAUUGUGCUGU [C18G C63G],0.104
5,GGGGGCCACAGCAGAAGAGUUCACGUCGCGGCCCCUGUCAGAUUCUGGUGAAUCUGCGAACUCUGCUGU [C18A U61C],0.158
6,GGGGGCCACAGCAGAAGUGUUCACGUCGCGGGCCCUGUCAGAUUCUGGUGAAUCUGCGAAUUCUGCUGU [C18U C32G],0.213
7,GGGGGCCACAGCAGAAGGGUUCACGUCGCGGCCCCUGUCAGCUUCUGGUGAAUCUGCGAAUUCUGCUGU [C18G A42C],0.124
8,GGGGGCCACAGCAGAAGGGUUCACGUCGCGGCCCCUGUCAGAUUCUGGUGAAUGUGCGAAUUCUGCUGU [C18G C54G],0.0613
9,GGGGGCCACAGCAGAAGGGUUCACGUCGCGGCCCCUGUCAGAUUCUGGUGAAUUUGCGAAUUCUGCUGU [C18G C54U],0.15
10,GGGGGCCACAGCAGAAGGGUUCACGUCGCGGCCCCUGUCAGAUUCUGGUGAAUCUACGAAUUCUGCUGU [C18G G56A],0.107
11,GGGGGCCACAGCAGAAGGGUUCACGUCGCGGCCCCUGUCAGAUUCUGGUGAAUCUCCGAAUUCUGCUGU [C18G G56C],0.101
12,GGGGGCCACAGCAGAAGGGUUCACGUCACGGCCCCUGUCAGAUUCUGGUGAAUCUGCGAAUUCUGCUGU [C18G G28A],0.133
13,GGGGGCCACAGCAGAAGGCUUCACGUCGCGGCCCCUGUCAGAUUCUGGUGAAUCUGCGAAUUCUGCUGU [C18G G19C],0.0934
14,GGGGGCCACAGCAGAAGGGUUUACGUCGCGGCCCCUGUCAGAUUCUGGUGAAUCUGCGAAUUCUGCUGU [C18G C22U],0.192
15,GGGGGCCACAGCAGAAGGGUUCACGUCGCGGCCCCUGUCAGAUUCUGGUGAAUCUGCGCAUUCUGCUGU [C18G A59C],0.149
16,GGGGGCCACAGCAGAAGUGUUAACGUCGCGGCCCCUGUCAGAUUCUGGUGAAUCUGCGAAUUCUGCUGU [C18U C22A],0.0833
17,GGGGGCCACAGCAGAAGGGUUCACGUCGCGGCCCCUGACAGAUUCUGGUGAAUCUGCGAAUUCUGCUGU [C18G U38A],0.158
18,GGGGGCCACAGCAGAAGGGUUCACGUCGCGGCCCCUGUCAGAUUCGGGUGAAUCUGCGAAUUCUGCUGU [C18G U46G],0.226
19,GGGGGCCACAGCAGAAGGGUACACGUCGCGGCCCCUGUCAGAUUCUGGUGAAUCUGCGAAUUCUGCUGU [C18G U21A],0.217
20,GGGGGCCACAGCAGAAGUGUUCACGUCGCGGCCCCUGUCAGAUUGUGGUGAAUCUGCGAAUUCUGCUGU [C18U C45G],0.778
21,GGGGGCCACAGCAGAAGUGUUCACGUCGCGGCCCCUGUCAGAUUUUGGUGAAUCUGCGAAUUCUGCUGU [C18U C45U],0.877
22,GGGGGCCACAGCAGAAGGGUUCGCGUCGCGGCCCCUGUCAGAUUCUGGUGAAUCUGCGAAUUCUGCUGU [C18G A23G],0.0901
23,GGGGGCCACAGCAGAAGGGUUCUCGUCGCGGCCCCUGUCAGAUUCUGGUGAAUCUGCGAAUUCUGCUGU [C18G A23U],0.22
24,GGGGGCCACAGCAGAAGGGUUCACGUCGCGGCCCCUGUCAGAUUCUGGUGAAUCUGCGAAAUCUGCUGU [C18G U61A],0.223
25,GGGGGCCACAGCAGAAGGGUUCACGUCGGGGCCCCUGUCAGAUUCUGGUGAAUCUGCGAAUUCUGCUGU [C18G C29G],0.187
26,GGGGGCCACAGCAGAAGUGUUCACGUCGCGGCCCCUGUCAGAUUCUGGUGAAUCUGUGAAUUCUGCUGU [C18U C57U],0.3
